Assay results from patent US20250262167A1, “COMPOUNDS, TARGETS AND PATHWAYS FOR MACROPHAGE MODULATION” (Massachusetts Institute of Technology, priority 2020, published 2025).

Key:
hMDMs [1] = assay: RNA-seq transcriptional response of hMDMs (GSEA, GO enrichment); format: cell-based, human; details: hMDMs, 24 hrs, GSEA
Method: Duplicate hMDM samples were treated with 2 M2-activating and 6 M1-activating compounds as well as IL-4 and IFNγ for 24 hrs. Gene expression levels were measured by RNA-seq separately. GSEA preranked analysis was performed based on the whole genome gene list ranked on gene expression changes using a gene set of 49 transcriptional modules in response to 29 stimuli in hMDMs. bosut.: bosutinib; alster.: alsterpaullone; mocet.: mocetinostat; thios.: thiostrepton; niclo.: niclosamide; chlor.: chlorhexidine; fenb.: fenbendazole; fluvo.: fluvoxamine. […] Duplicate hMDM samples were stimulated with each ligand and analyzed by RNA-seq separately.
DEGs were identified by edgeR at P<0.05 with at least 2 fold-change.
RNAs were extracted with RNeasy MiniElute kit (Qiagen), converted into cDNA and sequenced using Next-Generation Sequencing (Illumina). […] Differential expression analysis was performed using the program edgeR at P<0.05 with a 2 fold-change. The gene expression level across different samples was normalized and quantified using the function of cpm. Differentially expressed genes were annotated using online functional enrichment analysis tool DAVID (http://david.ncifcrf.gov/). Gene set enrichment analysis were performed with GSEA with FDR q-value<0.05.
Fresh hMDMs were treated with compounds at the EC for 24 hours, followed by RNA-seq.

[2] = tested on: human monocyte-derived macrophages (hMDMs); assay: High throughput phenotypic screen of macrophage activation (cell shape, Z-score); format: cell-based; details: known M1-/M2-activating stimuli;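 note: phalloidin and DAPI stained hMDMs imaged by high-content microscopy, cell eccentricity compared with DMSO control by T-test, round morphology scored negative, elongated positive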
Method: The Z-score was calculated by T-test to measure the difference of cell morphology between treatment and control. Stimuli had negative Z-scores when induced cells to round morphology and positive scores when induced cells to elongated morphology. […] Equally mixed human monocytes isolated from fresh blood of 4 healthy donors were cultured in vitro with 50 ng/mL M-CSF for 7 days. hMDMs were trypsinized and plated on 384-well plates (5000 cells/well in 50 μL). Cells were recovered in 10 ng/mL M-CSF for 16 hrs and then treated with compounds for 24 hrs. Cells were washed, fixed and stained with Phalloidin and DAPI. The plates were scanned with a high-content microscope with six-fields per well to quantify the cell number and cell morphology. […] The cell eccentricity was calculated to measure the cell morphology. The Z-score was calculated by T-test to measure the difference in cell morphologies between each compound and DMSO control.
Cells were treated with a library of over 4000 individual compounds or drugs at the final concentration of 20 μM using the CyBi-Well simultaneous pipettor (CyBio). […] After 24 hr incubation, supernatants were removed using the microplate washer (Bioteck) and cells were fixed by adding 50 μL 16% paraformaldehyde (Thermo Scientific) with the dispenser for 20 minutes. Cells were then washed with 50 μL 1×PBS twice and incubated for 20 minutes with NucBlue and AF746 Phalloidin (Invitrogen) to stain nucleus and cytoskeleton. Cells were then washed with 50 μL 1×PBS twice and maintained in PBS for the image acquirement. Plates were read in the Opera Phenix high content screening system (PerkinElmer) to photograph cells using 20× objective in 2 fluorescent channels (Blue and FarRed). A total of 6 different fields in each well and an average of 1,000 cells were imaged per well. CellProfiler was used to identify each cell by overlapping signals from its nucleus and cytoskeleton, and calculate the eccentricity as the parameter to measure the cell morphology. The Z-score was calculated by T-test to measure the difference of cell morphology between each treatment and control. For each row of the 384-well plate, total 4 wells with first and last two columns treated with the same concentration of DMSO were combined as the control for the other 20 treatment wells in that row. In the meantime, classic M1 and M2 stimuli were added to generate the gold-standard Z-score cutoffs with M1 or M2 activation. Classic M1 stimuli include LPS (100 ng/mL), IFNγ (50 ng/mL, Peprotech), TNFα (50 ng/mL, Peprotech), or IFNγ plus TNFα. Classic M2 stimuli include IL-10 (10 ng/mL, Peprotech), IL-4 (10 ng/mL, Peprotech), or IL-13 (5 ng/mL, Peprotech).

hMDMs [3] = assay: Flow cytometry of M1 markers (CD80, CD86) and M2 markers (CD206, CD163) in hMDMs; format: cell-based, human; details: 24 hrs
Method: FIGS. 7A-7B show morphology and phenotypes of activated macrophages. […] The resulting macrophages were polarized to M1 by IFNγ or M2 by IL4. Then, M1 macrophages were treated with M2-type compound bosutinib ([…]) for 24 hrs, and M2 macrophages were treated with M1-type compound thiostrepton ([…]) for 24 hrs. F-actin was stained and images were acquired by fluorescent microscopy with 60× objective. Cell nuclei are stained with DAPI. Representative data were shown from two independent experiments. […] Shown are the representative staining profiles from three independent experiments. The numbers show mean fluorescent intensity (MFI)+/−standard error of the mean (SEM) for n=3 samples per group.
FIGS. 9A-9C show comparison of the differentially expressed genes induced by selected compounds (FIG. 9A), ligands for novel pathways (FIG. 9B), and controls (IL-4 and IFNγ). […] Shown are the changes of the relative mean fluorescence intensity (MFI) to controls. 0.2 refers to 20% MFI increase.
B6 mice were purchased from the Jackson Laboratory and maintained in the animal facility at the Massachusetts Institute of Technology (MIT). NSG mice were purchased from the Jackson Laboratory and maintained under specific pathogen-free conditions in the animal facilities at MIT. […] The data were analyzed by FlowJo. […]

| Molecule | gene expression of TPP modules (#30, #32) (hMDMs [1]) | gene expression of typical M1 modules (#7, #8) (hMDMs [1]) | cell shape induced [2] | expression of M1 markers CD80 and CD86 (hMDMs [3]) | expression of M2 markers CD206 and CD163 (hMDMs [3]) |
| --- | --- | --- | --- | --- | --- |
| EGF: ligand of novel pathway (protein, UniProt P01133 23-1207, looked up, Pro-epidermal growth factor, ligand of novel pathway) Pro-epidermal growth factor: PQHWSCPEGTLAGNGNSTCVGPAPFLIFSHGNSIFRIDTEGTNYEQLVVDAGVSVIMDFHYNEKRIYWVDLERQLLQRVFLNGSRQERVCNIEKNVSGMAINWINEEVIWSNQQEGIITVTDMKGNNSHILLSALKYPANVAVDPVERFIFWSSEVAGSLYRADLDGVGVKALLETSEKITAVSLDVLDKRLFWIQYNREGSNSLICSCDYDGGSVHISKHPTQHNLFAMSLFGDRIFYSTWKMKTIWIANKHTGKDMVRINLHSSFVPLGELKVVHPLAQPKAEDDTWEPEQKLCKLRKGNCSSTVCGQDLQSHLCMCAEGYALSRDRKYCEDVNECAFWNHGCTLGCKNTPGSYYCTCPVGFVLLPDGKRCHQLVSCPRNVSECSHDCVLTSEGPLCFCPEGSVLERDGKTCSGCSSPDNGGCSQLCVPLSPVSWECDCFPGYDLQLDEKSCAASGPQPFLLFANSQDIRHMHFDGTDYGTLLSQQMGMVYALDHDPVENKIYFAHTALKWIERANMDGSQRERLIEEGVDVPEGLAVDWIGRRFYWTDRGKSLIGRSDLNGKRSKIITKENISQPRGIAVHPMAKRLFWTDTGINPRIESSSLQGLGRLVIASSDLIWPSGITIDFLTDKLYWCDAKQSVIEMANLDGSKRRRLTQNDVGHPFAVAVFEDYVWFSDWAMPSVMRVNKRTGKDRVRLQGSMLKPSSLVVVHPLAKPGADPCLYQNGGCEHICKKRLGTAWCSCREGFMKASDGKTCLALDGHQLLAGGEVDLKNQVTPLDILSKTRVSEDNITESQHMLVAEIMVSDQDDCAPVGCSMYARCISEGEDATCQCLKGFAGDGKLCSDIDECEMGVPVCPPASSKCINTEGGYVCRCSEGYQGDGIHCLDIDECQLGEHSCGENASCTNTEGGYTCMCAGRLSEPGLICPDSTPPPHLREDDHHYSVRNSDSECPLSHDGYCLHDGVCMYIEALDKYACNCVVGYIGERCQYRDLKWWELRHAGHGQQQKVIVVAVCVVVLVMLLLLSLWGAHYYRTQKLLSKNPKNPYEESSRDVRSRRPADTEDGMSSCPQPWFVVIKEHQDLKNGGQPVAGEDGQAADGSMQPTSWRQEPQLCGMGTEQGCWIPVSSDKGSCPQVMERSFHMPSYGTQTLEGGVEKPHSLLSANPLWQQRALDPPHQMELTQ | down-regulated | up-regulated |  |  |  |
| IL10: classic M2 stimulus (protein, UniProt P22301 19-178, looked up) Interleukin-10: SPGQGTQSENSCTHFPGNLPNMLRDLRDAFSRVKTFFQMKDQLDNLLLKESLLEDFKGYLGCQALSEMIQFYLEEVMPQAENQDPDIKAHVNSLGENLKTLRLRLRRCHRFLPCENKSKAVEQVKNAFNKLQEKGIYKAMSEFDIFINYIEAYMTMKIRN |  |  | elongated cell shape |  |  |
| IL-4: classic M2 stimulus (protein, UniProt P05112 25-153, looked up) Interleukin-4: HKCDITLQEIIKTLNSLTEQKTLCTELTVTDIFAASKNTTEKETFCRAATVLRQFYSHHEKDTRCLGATAQQFHRHKQLIRFLKRLDRNLWGLAGLNSCPVKEANQSTLENFLERLKTIMREKYSKCSS |  |  | elongated cell shape | suppressed | up-regulated |
